The target in test [1] is T1, GHRH receptor (membrane receptors of human anterior pituitary cells) (human) (UniProt Q02643).
T1 sequence (looked up): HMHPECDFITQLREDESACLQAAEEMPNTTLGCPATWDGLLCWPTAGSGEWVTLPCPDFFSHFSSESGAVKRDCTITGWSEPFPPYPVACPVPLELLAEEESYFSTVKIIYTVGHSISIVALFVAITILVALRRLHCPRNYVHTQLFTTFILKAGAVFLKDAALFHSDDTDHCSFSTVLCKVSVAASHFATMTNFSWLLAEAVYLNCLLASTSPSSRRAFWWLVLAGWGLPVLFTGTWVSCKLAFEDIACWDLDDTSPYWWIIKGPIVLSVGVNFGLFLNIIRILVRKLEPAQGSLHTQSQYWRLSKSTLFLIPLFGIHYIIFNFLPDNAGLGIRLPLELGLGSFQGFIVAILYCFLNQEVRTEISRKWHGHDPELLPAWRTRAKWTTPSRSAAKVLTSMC
As to the kind of experiment: competition with 125I-JV-1-42, human pituitary membranes.

For test [2], the target named is T1, GHRH receptor (membrane receptors of human anterior pituitary cells) (human). Description: competition with 125I-[His1,Nle27]hGHRH(1-32)NH2, human pituitary membranes.
Test [3] has as its target T2, GHRH receptor (membrane receptors of human anterior pituitary cells) (human, UniProt Q02643 23-423).
T2 construct: whole, on cells; Native receptor in a membrane fraction of purchased normal human pituitaries, not intact cells; also called hGHRH receptor; human pituitary membrane homogenates
T2 sequence (looked up): T1 sequence (looked up)
Description: competition with [His1,125I-Tyr10,Nle27]hGHRH(1-32)NH2, human pituitary membranes. The text has this: Normal human pituitaries were purchased from the National Hormone and Peptide Program (A. F. Parlow, Los Angeles, County Harbor—UCLA Medical Center, Torrance, Calif.).

The target of test [4] is T2, GHRH receptor (membrane receptors of …). As to the kind of experiment: competition with 125I-JV-1-42, human pituitary membranes. The text has this:
(§1) Normal human pituitaries were purchased from the National Hormone and Peptide Program (A. F. Parlow, Los Angeles, County Harbor-UCLA Medical Center, Torrance, Calif.).

Test [5] shares this target. Described as above. The protocol: as §1
The final binding affinities were expressed as IC₅₀ values and were calculated by using the LIGAND PC computerized curve-fitting program of Munson and Rodbard as modified by McPherson.
This is another data set of the same source.

Non-standard residues stand in square brackets, D forms with d. *: point of attachment. Desaminotyrosyl = O=C(CCc1ccc(O)cc1)*; hArg = N=C(N)NCCCC[C@H](N)C(=O)O; Agmatine = N=C(N)NCCCCN*; Nle = CCCC[C@H](N)C(=O)O; Orn = NCCC[C@H](N)C(=O)O; Abu = CC[C@H](N)C(=O)O; Aoc = NCCCCCCCC(=O)O; Ava = NCCCCC(=O)O

B1: P-22327 [Dat^1, Gln^8, Orn^12, Abu^15, Orn^21, Nle^27, Asp^28, Apa^30]hGHRH(1-30)NH2 (peptide, from a related filing)
peptide: [Desaminotyrosyl]ADAIFTQSYR[Orn]VL[Abu]QLSAR[Orn]LLQDI[Nle]DR[Ava]-NH2
SMILES: CCCC[C@H](NC(=O)[C@@H](NC(=O)[C@H](CC(=O)O)NC(=O)[C@H](CCC(N)=O)NC(=O)[C@H](CC(C)C)NC(=O)[C@H](CC(C)C)NC(=O)[C@H](CCCN)NC(=O)[C@H](CCCNC(=N)N)NC(=O)[C@H](C)NC(=O)[C@H](CO)NC(=O)[C@H](CC(C)C)NC(=O)[C@H](CCC(N)=O)NC(=O)[C@H](CC)NC(=O)[C@H](CC(C)C)NC(=O)[C@@H](NC(=O)[C@H](CCCN)NC(=O)[C@H](CCCNC(=N)N)NC(=O)[C@H](Cc1ccc(O)cc1)NC(=O)[C@H](CO)NC(=O)[C@H](CCC(N)=O)NC(=O)[C@@H](NC(=O)[C@H](Cc1ccccc1)NC(=O)[C@@H](NC(=O)[C@H](C)NC(=O)[C@H](CC(=O)O)NC(=O)[C@H](C)NC(=O)CCc1ccc(O)cc1)[C@@H](C)CC)[C@@H](C)O)C(C)C)[C@@H](C)CC)C(=O)N[C@@H](CC(=O)O)C(=O)N[C@@H](CCCNC(=N)N)C(=O)NCCCCC(N)=O
In test [1], B1 yielded a half-inhibitory concentration (IC50) of 1.99 nM and a Relative affinity (Binding potency) vs JI-38 of 2.18 JI-38 = 1. In test [2], this molecule yielded an IC50 of 2.04 nM, a Relative affinity (Binding potency) compared to JI-38 of 1.34 JI-38 = 1 and a Relative affinity (Binding potency) compared to hGHRH(1-29) (hGHRH(1-29)NH2 = 1) of 3.75.

B2: P-23252 [Dat^1-D-Ala^2, Orn^12, Abu^15, Orn^21, Nle^27, Asp^28, Har^30]hGHRH(1-30)NH2 (peptide)
peptide: [Desaminotyrosyl][dA]DAIFTNSYR[Orn]VL[Abu]QLSAR[Orn]LLQDI[Nle]DR[hArg]-NH2
SMILES: CCCC[C@H](NC(=O)[C@@H](NC(=O)[C@H](CC(=O)O)NC(=O)[C@H](CCC(N)=O)NC(=O)[C@H](CC(C)C)NC(=O)[C@H](CC(C)C)NC(=O)[C@H](CCCN)NC(=O)[C@H](CCCNC(=N)N)NC(=O)[C@H](C)NC(=O)[C@H](CO)NC(=O)[C@H](CC(C)C)NC(=O)[C@H](CCC(N)=O)NC(=O)[C@H](CC)NC(=O)[C@H](CC(C)C)NC(=O)[C@@H](NC(=O)[C@H](CCCN)NC(=O)[C@H](CCCNC(=N)N)NC(=O)[C@H](Cc1ccc(O)cc1)NC(=O)[C@H](CO)NC(=O)[C@H](CC(N)=O)NC(=O)[C@@H](NC(=O)[C@H](Cc1ccccc1)NC(=O)[C@@H](NC(=O)[C@H](C)NC(=O)[C@H](CC(=O)O)NC(=O)[C@@H](C)NC(=O)CCc1ccc(O)cc1)[C@@H](C)CC)[C@@H](C)O)C(C)C)[C@@H](C)CC)C(=O)N[C@@H](CC(=O)O)C(=O)N[C@@H](CCCNC(=N)N)C(=O)N[C@@H](CCCCNC(=N)N)C(N)=O
notes: also called Peptide 23252
As for B2, in test [3], the IC50 came to 0.14 nM, the “Relative affinity (Binding potency) vs GHRH” value (shortened to “Relative affinity … vs GHRH”) was 42.3 GHRH(1-29) = 1 and the “Relative affinity (Binding potency) vs JI-38” value (shortened to “Relative affinity … vs JI-38”) was 13.9 JI-38 = 1.

B3: P-21304 [Dat^1, D-Ala^2, Gln^8, Orn^12, Abu^15, Orn^21, Nle^27, Asp^28, Amc^30]hGHRH(1-30)NH2 (peptide)
peptide: [Desaminotyrosyl][dA]DAIFTQSYR[Orn]VL[Abu]QLSAR[Orn]LLQDI[Nle]DR[Aoc]-NH2
SMILES: CCCC[C@H](NC(=O)[C@@H](NC(=O)[C@H](CC(=O)O)NC(=O)[C@H](CCC(N)=O)NC(=O)[C@H](CC(C)C)NC(=O)[C@H](CC(C)C)NC(=O)[C@H](CCCN)NC(=O)[C@H](CCCNC(=N)N)NC(=O)[C@H](C)NC(=O)[C@H](CO)NC(=O)[C@H](CC(C)C)NC(=O)[C@H](CCC(N)=O)NC(=O)[C@H](CC)NC(=O)[C@H](CC(C)C)NC(=O)[C@@H](NC(=O)[C@H](CCCN)NC(=O)[C@H](CCCNC(=N)N)NC(=O)[C@H](Cc1ccc(O)cc1)NC(=O)[C@H](CO)NC(=O)[C@H](CCC(N)=O)NC(=O)[C@@H](NC(=O)[C@H](Cc1ccccc1)NC(=O)[C@@H](NC(=O)[C@H](C)NC(=O)[C@H](CC(=O)O)NC(=O)[C@@H](C)NC(=O)CCc1ccc(O)cc1)[C@@H](C)CC)[C@@H](C)O)C(C)C)[C@@H](C)CC)C(=O)N[C@@H](CC(=O)O)C(=O)N[C@@H](CCCNC(=N)N)C(=O)NCCCCCCCC(N)=O
notes: also called Peptide 21304
In the case of B3, in test [3], the IC50 stood at 0.08 nM, the “Relative affinity … vs GHRH” value is 74 GHRH(1-29) = 1 and the “Relative affinity … vs JI-38” value was found to be 24.4 JI-38 = 1.

B4: P-23256 [Dat^1, D-Ala^2, Ala^8, Orn^12, Abu^15, Orn^21, Nle^27, Asp^28, Har^30]hGHRH(1-30)NH2 (peptide)
peptide: [Desaminotyrosyl][dA]DAIFTASYR[Orn]VL[Abu]QLSAR[Orn]LLQDI[Nle]DR[hArg]-NH2
SMILES: CCCC[C@H](NC(=O)[C@@H](NC(=O)[C@H](CC(=O)O)NC(=O)[C@H](CCC(N)=O)NC(=O)[C@H](CC(C)C)NC(=O)[C@H](CC(C)C)NC(=O)[C@H](CCCN)NC(=O)[C@H](CCCNC(=N)N)NC(=O)[C@H](C)NC(=O)[C@H](CO)NC(=O)[C@H](CC(C)C)NC(=O)[C@H](CCC(N)=O)NC(=O)[C@H](CC)NC(=O)[C@H](CC(C)C)NC(=O)[C@@H](NC(=O)[C@H](CCCN)NC(=O)[C@H](CCCNC(=N)N)NC(=O)[C@H](Cc1ccc(O)cc1)NC(=O)[C@H](CO)NC(=O)[C@H](C)NC(=O)[C@@H](NC(=O)[C@H](Cc1ccccc1)NC(=O)[C@@H](NC(=O)[C@H](C)NC(=O)[C@H](CC(=O)O)NC(=O)[C@@H](C)NC(=O)CCc1ccc(O)cc1)[C@@H](C)CC)[C@@H](C)O)C(C)C)[C@@H](C)CC)C(=O)N[C@@H](CC(=O)O)C(=O)N[C@@H](CCCNC(=N)N)C(=O)N[C@@H](CCCCNC(=N)N)C(N)=O
notes: also called Peptide 23256
As to B4, in test [3], the IC50 turned out to be 0.04 nM, the “Relative affinity … vs GHRH” value is 148 GHRH(1-29) = 1 and the “Relative affinity … vs JI-38” value turned out to be 48.7 JI-38 = 1.

B5: P-23254 [Dat^1, D-Ala^2, Thr^8, Orn^12, Abu^15, Orn^21, Nle^27, Asp^28, Har^30]hGHRH(1-30)NH2 (peptide)
peptide: [Desaminotyrosyl][dA]DAIFTTSYR[Orn]VL[Abu]QLSAR[Orn]LLQDI[Nle]DR[hArg]-NH2
SMILES: CCCC[C@H](NC(=O)[C@@H](NC(=O)[C@H](CC(=O)O)NC(=O)[C@H](CCC(N)=O)NC(=O)[C@H](CC(C)C)NC(=O)[C@H](CC(C)C)NC(=O)[C@H](CCCN)NC(=O)[C@H](CCCNC(=N)N)NC(=O)[C@H](C)NC(=O)[C@H](CO)NC(=O)[C@H](CC(C)C)NC(=O)[C@H](CCC(N)=O)NC(=O)[C@H](CC)NC(=O)[C@H](CC(C)C)NC(=O)[C@@H](NC(=O)[C@H](CCCN)NC(=O)[C@H](CCCNC(=N)N)NC(=O)[C@H](Cc1ccc(O)cc1)NC(=O)[C@H](CO)NC(=O)[C@@H](NC(=O)[C@@H](NC(=O)[C@H](Cc1ccccc1)NC(=O)[C@@H](NC(=O)[C@H](C)NC(=O)[C@H](CC(=O)O)NC(=O)[C@@H](C)NC(=O)CCc1ccc(O)cc1)[C@@H](C)CC)[C@@H](C)O)[C@@H](C)O)C(C)C)[C@@H](C)CC)C(=O)N[C@@H](CC(=O)O)C(=O)N[C@@H](CCCNC(=N)N)C(=O)N[C@@H](CCCCNC(=N)N)C(N)=O
notes: also called Peptide 23254
Turning to B5, in test [3], the concentration for half-maximal inhibition (IC50) was determined as 0.07 nM, the “Relative affinity … vs GHRH” value was 84.5 GHRH(1-29) = 1 and the “Relative affinity … vs JI-38” value was found to be 27.8 JI-38 = 1.

B6: P-20350 [Dat^1, D-Ala^2, Gln^8, Orn^12, Abu^15, Orn^21, Nle^27, Asp^28, Agm^29]hGHRH(1-29)NH2 (peptide)
peptide: [Desaminotyrosyl][dA]DAIFTQSYR[Orn]VL[Abu]QLSAR[Orn]LLQDI[Nle]D[Agmatine]
SMILES: CCCC[C@H](NC(=O)[C@@H](NC(=O)[C@H](CC(=O)O)NC(=O)[C@H](CCC(N)=O)NC(=O)[C@H](CC(C)C)NC(=O)[C@H](CC(C)C)NC(=O)[C@H](CCCN)NC(=O)[C@H](CCCNC(=N)N)NC(=O)[C@H](C)NC(=O)[C@H](CO)NC(=O)[C@H](CC(C)C)NC(=O)[C@H](CCC(N)=O)NC(=O)[C@H](CC)NC(=O)[C@H](CC(C)C)NC(=O)[C@@H](NC(=O)[C@H](CCCN)NC(=O)[C@H](CCCNC(=N)N)NC(=O)[C@H](Cc1ccc(O)cc1)NC(=O)[C@H](CO)NC(=O)[C@H](CCC(N)=O)NC(=O)[C@@H](NC(=O)[C@H](Cc1ccccc1)NC(=O)[C@@H](NC(=O)[C@H](C)NC(=O)[C@H](CC(=O)O)NC(=O)[C@@H](C)NC(=O)CCc1ccc(O)cc1)[C@@H](C)CC)[C@@H](C)O)C(C)C)[C@@H](C)CC)C(=O)N[C@@H](CC(=O)O)C(=O)NCCCCNC(=N)N
notes: also called Peptide 20350; MR-350
In the case of B6, in test [4], the IC50 was 0.52 nM and the “Relative affinity … vs JI-38” value was 8.37 JI-38 = 1. In test [5], the concentration for half-maximal inhibition (IC50) turned out to be 0.04 nM, the “Relative affinity … vs GHRH” value is 102 GHRH(1-29) = 1 and the “Relative affinity … vs JI-38” value worked out at 42.7 JI-38 = 1.

These data come from US20140179604A1 (U S A REPRESENTED BY THE DEPARTMENT OF VETERANS AFFAIRS, published 2014).
